Measured values taken from paper PMC9475456, “DDX56 transcriptionally activates MIST1 to facilitate tumorigenesis of HCC through PTEN-AKT signaling”.

Biological target: T1, DDX56 (His-DDX56) (human, UniProt Q9NY93 1-547)
T1 sequence: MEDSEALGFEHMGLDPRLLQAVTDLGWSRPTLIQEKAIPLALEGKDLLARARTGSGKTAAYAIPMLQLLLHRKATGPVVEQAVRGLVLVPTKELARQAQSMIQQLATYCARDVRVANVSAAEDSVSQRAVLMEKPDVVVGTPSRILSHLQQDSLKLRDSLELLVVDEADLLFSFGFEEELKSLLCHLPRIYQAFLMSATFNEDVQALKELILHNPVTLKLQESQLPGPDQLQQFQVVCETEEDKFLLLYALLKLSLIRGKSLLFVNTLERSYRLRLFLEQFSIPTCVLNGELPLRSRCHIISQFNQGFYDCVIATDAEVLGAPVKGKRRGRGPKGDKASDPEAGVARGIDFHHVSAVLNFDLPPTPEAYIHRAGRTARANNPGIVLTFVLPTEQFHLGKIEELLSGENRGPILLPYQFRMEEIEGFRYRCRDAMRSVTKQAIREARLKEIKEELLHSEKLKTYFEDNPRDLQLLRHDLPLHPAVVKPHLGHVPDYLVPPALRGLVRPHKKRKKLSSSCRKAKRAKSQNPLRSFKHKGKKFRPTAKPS
Test: EMSA; 5 mM Mg2+; poly(dI-dC); supershifted by DDX56 antibody; LightShift EMSA kit, 20 uL: 2 uL 10x binding buffer, 1 uL 50% glycerol, 1 uL 100 mM MgCl2, 1 ug/uL poly(dI-dC), 1 uL 1% NP-40, 2 ug protein; supershift at room
Settings: protein: commercial; tags: N-terminal His; label: 5' biotin; blunt

B1: MIST1 promoter -160 to -117 (dsDNA)
DNA 1: GCCACCTGGTCCGGGAGCCCCAGGCGCCGGCCTCCCGCCCGCCC
DNA 2: GGGCGGGCGGGAGGCCGGCGCCTGGGGCTCCCGGACCAGGTGGC
binding result: binds
